These results are taken from patent publication US20030119027.

The target in this data set is T1, SfiI (Streptomyces fimbriatus) (UniProt O52512).
T1 sequence: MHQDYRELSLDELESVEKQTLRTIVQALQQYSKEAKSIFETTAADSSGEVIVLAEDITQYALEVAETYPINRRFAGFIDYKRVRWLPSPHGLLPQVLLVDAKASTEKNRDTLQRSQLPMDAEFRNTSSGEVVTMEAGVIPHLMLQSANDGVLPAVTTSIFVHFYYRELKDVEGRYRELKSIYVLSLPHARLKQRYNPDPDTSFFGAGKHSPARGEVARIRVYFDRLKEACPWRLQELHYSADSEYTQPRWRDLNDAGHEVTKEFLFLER
The data set is described as follows: cleavage_in_vitro. Particulars: yield of in vitro translation with T7 RNA polymerase; NEBuffer 2, 10 mM MgCl2, 50 C 60 min.

“GGCCNNNNNGGCC (double strand) [SfiI site (Adenovirus-2 DNA)]” had an activity above 33000 units/ml.
